According to paper PMC7956722 (Molecules, 2021):
Like-named read-outs stand apart in the source and are kept apart here. Non-standard residues stand in square brackets, D forms with d. Residues, ends and D or L forms follow the SMILES beside them. dPhe(4-Cl) = N[C@H](Cc1ccc(Cl)cc1)C(=O)O; d2Nal = N[C@H](Cc1ccc2ccccc2c1)C(=O)O; dCit = NC(=O)NCCC[C@@H](N)C(=O)O; d3Pal = N[C@H](Cc1cccnc1)C(=O)O

Experiments:
[1] = molecular target: T1, LHRH receptors (membrane receptors of human bladder cancer cells) (Homo sapiens, UniProt P30968); assay: Ligand competition assay: displacement of [125I][D-Trp6]LHRH by unlabeled peptides; type: binding; settings: for displacement of [125I][D-Trp6]LHRH by unrelated peptides: membrane fractions of human bladder cancer specimens, increasing concentrations, mean of duplicate or triplicate determinations
T1 construct: membrane homogenates of bladder cancer specimens containing 60–150 µg protein were incubated in duplicate; from tissue; host or cells: surgically resected human bladder cancer (transitional cell carcinoma) tissue, crude membrane fractions
T1 sequence (P30968 1-328): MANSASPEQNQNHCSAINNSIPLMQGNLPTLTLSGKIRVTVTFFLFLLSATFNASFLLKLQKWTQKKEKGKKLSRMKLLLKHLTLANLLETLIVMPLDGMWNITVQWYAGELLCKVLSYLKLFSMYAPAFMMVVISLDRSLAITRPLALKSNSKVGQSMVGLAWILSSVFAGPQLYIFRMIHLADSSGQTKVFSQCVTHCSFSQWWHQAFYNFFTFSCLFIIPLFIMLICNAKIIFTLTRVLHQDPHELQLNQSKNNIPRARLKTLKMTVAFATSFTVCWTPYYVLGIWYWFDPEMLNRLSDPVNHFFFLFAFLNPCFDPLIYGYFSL
Protocol: Analysis of the typical displacement of radiolabeled [D-Trp^6] […] Biochemical parameters essential to establish the identity of specific binding sites were also determined.
Each point represents mean of duplicate or triplicate determinations.
The assay was performed as described earlier. […] At the end of the incubation, 125 µL aliquots of suspension were transferred onto the top of 1 mL of ice-cold binding buffer containing 1.5% BSA in microcentrifuge tubes. The tubes were centrifuged at 12,000× g for 3 min at 4 °C. Supernatants were aspirated and the pellet was counted in a gamma counter. Protein concentration was determined by the method of Bradford using a Bio-Rad protein assay kit (Bio-Rad Laboratories, Hercules, CA, USA). The final binding affinities were expressed as IC50 values and were calculated by using the LIGAND-PC computerized curve-fitting program of Munson and Rodbard.

[2] = tested on: LHRH-receptor-positive models of human ovarian, mammary, endometrial, and prostatic cancers; settings: cited from earlier work
various human cancers = settings: trials completed or terminated; cited from earlier work
Source text: (§1) Our findings are in agreement with the results of Bahk et al. (2008). […] However, there is no information about the role of peptide receptors in bladder carcinogenesis. The signaling pathways have the potential to be an important area of bladder cancer research, leading to the development of effective therapeutic approaches.

[3] = tested on: bladder cancer in nude mice; settings: Szepeshazi et al., cited from earlier work
Source text: as §1

[4] = tested on: metastatic bladder cancer; settings: first-line therapy, cisplatin-based chemotherapy; cited from earlier work
Source text: More than 90% of urothelial tumors originate from the urinary bladder, 8% from the renal pelvis, and 2% from the ureter and urethra. Histologically, the majority (around 90%) of bladder cancer is described as the type of TCC and the rest are squamous cell carcinoma, adenocarcinoma, and rarely, small cell carcinoma. Despite advancements in surgical techniques and chemotherapy, the overall survival in metastatic bladder cancer has not improved over the last 20 years. The first-line therapy is cisplatin-based chemotherapy with the response rate of approximately 50% [[4],[31] ...

bladder carcinogenesis = tested on: bladder carcinogenesis; parameters: method as in PMID 8551710; settings: cited from earlier work
Source text: The effects of the androgen regulation system and LHRH agonist on bladder carcinogenesis have been investigated in animals [10].

[125I][D-Trp6]LHRH [5] = molecular target: T2, [125I][D-Trp6]LHRH (Homo sapiens, pGlu1, D-Trp6, C-terminal amide, 125I); assay: radioligand competition (patient 10)
T2 chain: QHWSYWLRPG

[125I][D-Trp6]LHRH [6] = molecular target: T2, [125I][D-Trp6]LHRH; assay: radioligand competition (patient 19)
[125I][D-Trp6]LHRH [7] = molecular target: T2, [125I][D-Trp6]LHRH; assay: radioligand competition (patient 12)
[125I][D-Trp6]LHRH [8] = molecular target: T2, [125I][D-Trp6]LHRH; assay: radioligand competition (patient 8)
[125I][D-Trp6]LHRH [9] = molecular target: T2, [125I][D-Trp6]LHRH; assay: radioligand competition, Scatchard (mean of 10 bladder cancer specimens)
[125I][D-Trp6]LHRH [10] = molecular target: T2, [125I][D-Trp6]LHRH; assay: radioligand competition (patient 6)
[125I][D-Trp6]LHRH [11] = molecular target: T2, [125I][D-Trp6]LHRH; assay: radioligand competition (patient 22)
[125I][D-Trp6]LHRH [12] = molecular target: T2, [125I][D-Trp6]LHRH; assay: radioligand competition (patient 14)
[125I][D-Trp6]LHRH [13] = molecular target: T2, [125I][D-Trp6]LHRH; assay: radioligand competition (patient 18)
[D-Lys6]LHRH = molecular target: T3, [D-Lys6]LHRH (Homo sapiens, pGlu1, D-Lys6, C-terminal amide); assay: radioligand competition
T3 chain: QHWSYKLRPG

AN-152 = molecular target: T4, AN-152 (Homo sapiens, pGlu1, D-Lys6 linked through glutaric acid spacer to doxorubicin, C-terminal amide); assay: radioligand competition
T4 chain: QHWSYKLRPG

[125I][D-Trp6]LHRH [14] = molecular target: T2, [125I][D-Trp6]LHRH; assay: radioligand competition (patient 7)
[125I][D-Trp6]LHRH [15] = molecular target: T2, [125I][D-Trp6]LHRH; assay: radioligand competition (patient 3)

COc1cccc2c1C(=O)c1c(O)c3c(c(O)c1C2=O)C[C@@](O)(C(=O)COC(=O)CCCC(=O)NCCCC[C@@H](NC(=O)[C@H](Cc1ccc(O)cc1)NC(=O)[C@H](CO)NC(=O)[C@H](Cc1c[nH]c2ccccc12)NC(=O)[C@H](Cc1c[nH]cn1)NC(=O)[C@@H]1CCC(=O)N1)C(=O)N[C@@H](CC(C)C)C(=O)N[C@@H](CCCNC(=N)N)C(=O)N1CCC[C@H]1C(=O)NCC(N)=O)C[C@@H]3O[C@H]1C[C@H](N)[C@H](O)[C@H](C)O1 [AN-152]
binding affinity relative to free carrier [D-Lys6]LHRH (in words) ([1]; compared with free peptide carrier [D-Lys6]LHRH, human bladder cancer membranes): only slightly lower binding affinity to specific LHRH receptors than the free peptide carrier | binding to LHRH receptors (in words) ([1]; displacement of [125I][D-Trp6]LHRH, human bladder cancer membranes): could effectively bind to LHRH receptors at low nanomolar concentration | inhibition of tumor growth in vivo versus respective radicals ([2]; human ovarian, mammary, endometrial, prostatic cancers xenografted into nude mice): much more effective in vivo than their respective radicals in inhibiting tumor growth | toxicity versus respective radicals ([2]; nude mice): less toxic | outcome of clinical trials (various human cancers): some of these studies did not achieve their primary endpoint | effect compared with DOX ([3]; bladder cancer in nude mice): greater effects than DOX | growth inhibition of bladder cancer ([3]; nude mice): inhibits powerfully the growth of the bladder cancer in nude mice | toxicity compared with DOX ([3]; nude mice): lesser toxicity

CC(=O)N[C@H](Cc1ccc2ccccc2c1)C(=O)N[C@H](Cc1ccc(Cl)cc1)C(=O)N[C@H](Cc1cccnc1)C(=O)N[C@@H](CO)C(=O)N[C@@H](Cc1ccc(O)cc1)C(=O)N[C@H](CCCNC(N)=O)C(=O)N[C@@H](CC(C)C)C(=O)N[C@@H](CCCNC(=N)N)C(=O)N1CCC[C@H]1C(=O)N[C@H](C)C(N)=O [Cetrorelix] (Ac-[d2Nal][dPhe(4-Cl)][d3Pal]SY[dCit]LRP[dA]-NH2)
IC50 [1]: 0.86 nM

CC(C)C[C@H](NC(=O)[C@@H](CCCCN)NC(=O)[C@H](Cc1ccc(O)cc1)NC(=O)[C@H](CO)NC(=O)[C@H](Cc1c[nH]c2ccccc12)NC(=O)[C@H](Cc1cnc[nH]1)NC(=O)[C@@H]1CCC(=O)N1)C(=O)N[C@@H](CCCNC(=N)N)C(=O)N1CCC[C@H]1C(=O)NCC(N)=O [[D-Lys^6]LHRH]
IC50 ([1]; read-out: Receptor binding potency (IC50)): 0.98 nM

N.N.[Cl][Pt][Cl] [cisplatin]
response rate [4]: approximately 50%

CC(C)C(=O)Nc1ccc([N+](=O)[O-])c(C(F)(F)F)c1 [flutamide]
effect on bladder carcinogenesis (bladder carcinogenesis): suppressed the LHRH-induced promotion of carcinogenesis

epidermal growth factor: unrelated peptide
displacement of [125I][D-Trp6]LHRH by unrelated peptides [1]: did not displace the radioligand

growth hormone-releasing hormone (GHRH): unrelated peptide
displacement of [125I][D-Trp6]LHRH by unrelated peptides [1]: did not displace the radioligand

human growth hormone (hGH): unrelated peptide
displacement of [125I][D-Trp6]LHRH by unrelated peptides [1]: did not displace the radioligand

somatostatin: unrelated peptide
displacement of [125I][D-Trp6]LHRH by unrelated peptides [1]: did not displace the radioligand

vasoactive intestinal peptide (VIP): unrelated peptide
displacement of [125I][D-Trp6]LHRH by unrelated peptides [1]: did not displace the radioligand

B1: LHRH receptor type I (protein)
chain: MANSASPEQNQNHCSAINNSIPLMQGNLPTLTLSGKIRVTVTFFLFLLSATFNASFLLKLQKWTQKKEKGKKLSRMKLLLKHLTLANLLETLIVMPLDGMWNITVQWYAGELLCKVLSYLKLFSMYAPAFMMVVISLDRSLAITRPLALKSNSKVGQSMVGLAWILSSVFAGPQLYIFRMIHLADSSGQTKVFSQCVTHCSFSQWWHQAFYNFFTFSCLFIIPLFIMLICNAKIIFTLTRVLHQDPHELQLNQSKNNIPRARLKTLKMTVAFATSFTVCWTPYYVLGIWYWFDPEMLNRLSDPVNHFFFLFAFLNPCFDPLIYGYFSL
Kd ([125I][D-Trp6]LHRH [5]): 5.02 nM | Kd ([125I][D-Trp6]LHRH [6]): 3.83 nM | Kd ([125I][D-Trp6]LHRH [7]): 3.61 nM | Kd ([125I][D-Trp6]LHRH [8]): 6.26 nM | Kd ([125I][D-Trp6]LHRH [9]): 4.98 nM | Kd ([125I][D-Trp6]LHRH [10]): 6.85 nM | Kd ([125I][D-Trp6]LHRH [11]): 4.31 nM | Kd ([125I][D-Trp6]LHRH [12]): 4.92 nM | Kd ([125I][D-Trp6]LHRH [13]): 4.38 nM | IC50 ([D-Lys6]LHRH): 0.98 nM | IC50 (AN-152): 1.39 nM | Kd ([125I][D-Trp6]LHRH [14]): 4.94 nM | Kd ([125I][D-Trp6]LHRH [15]): 5.76 nM
